Test results reported in the DeepSol protein solubility set.

Assay: soluble on expression in E. coli; label from the status in PepcDB or PDB records

## MGSDKIHHHHHHMINAEPIISKMKNQKINYDKVLKKLIGQWEREAIRPKILLHSCCAPCSTYTLEFLTQYADIAIYFANSNIHPKNEYLRRAKVQEQFVEDFNRKTGANVKYIEAPYEPHKFVKMVKDKELADEKEGGLRCTACFEMRLDIVAKAAVEHGYDYFGSAITLSPKKNAQLINELGMDVQKIYDVNYLPSDFKKSKGYERSIEMCNDYNIFRQCYCGCVFAAMQQGIDFKTVNKEAKAFLEQYPD
  soluble on expression in E. coli: not soluble

## MGESGLFDTPDQKVGLTGRPLREFPEPEPLHKHGPAKIISMCNQKGGVGKTTSTINLGACLAEAGRKVLLVDLDPQGALSAGLNIPHEELEITVYNLLVDRHTSIHQAIHHTSVDGLDLVPANIDLSAAEIQLVNEVGREQTLARALRPVMRDYDFIILDCQPSLGLLTVNALTCSHGVIIPMECEYFSLRGLALLTDTVEKVRDRLNFDLEIVGILVTMFDRRTTHAREVMSRVVEVFEDRVFDTVITRTVRFPETSVAGEPITTWAPSSQGAQQYRQLAREVIERTA
  soluble on expression in E. coli: not soluble

## MILHAQAKHGKLGLPWLVFLHGFSGDCHEWQEVGEAFADYSRLYVDLLGHGGSAAISVDGFDDVTDLLRKTLVSYNILDFWLVGYSLGGRVAMMAACQGLAGLCGVIVEGGHPGLQNAEQRAERQRSDRQWAQRFRTEPLTAVFADWYQQPVFASLNDDQRRELVALRSNNNGATLAAMLEATSLAVQPDLRANLSARTFAFYYLCGERDSKFRALAAELAADCHVIPRAGHNAHRENPAGVIASLAQILRF
  soluble on expression in E. coli: not soluble

## MDPVFDFEDALDQTEMAQLAVDELKKIPEVNTLFAERWLPAPFNLDDLAKLPEGTLGHVYAIEMKARGFDPYFYKKVPVVDDISYLKMLWRSTHDIYHVVAGFDTDGIGEIGLQAFVLAQTPIPISVMLVSFGMVMTSLYQPAKFQDLMAEIARGYSLGSHTPRKLIAQKWDQFWDVPVIEIRECLGMNTVKQRERALEHHHHHH
  soluble on expression in E. coli: soluble

## MGSDKIHHHHHHMTKHLDVGQCLTIIEGTNTALKSYMDHFDFMEAAISRVLELEGSLKGKGGEALLRNYQELQLPAIRAARAFISSMKEMGEKLRSLILSFEPSENGMVSEDFYRNQVTRGYDRFEQFMEQNKAEVDAIAASVSHIIDLGKLDIRHVQDRVDDARKHANDTVEGLYELDHEGMRLMRELQRDMAELKAILKKVTEWTVSGGALLNGVDLNDVRSHFADKTLHTKAPEVSVKLSSPNPLIQYANDFPLRFKYDTMRSIMKVFDLSHHHKWFSNRIKSLPLTSLFIMARWNVNTKSDNYLKVH
  soluble on expression in E. coli: not soluble

## MNQAWQSQLPLSHIKNIVPVSGGDVNDAFRIETDQEDYFLLVQRKRKSTFFDAEIAGLNLFEKVGITAPRVIDSGEIEDDAYLLLTYLDEGVSGSQEALGQLVARMHSEQQADNQFGFDLPYEGGDISFDNSWTNSWITLFVEKRLDKLKDRLVQQGLWGDADVTQYQAVRRVIVNELESHNSKPSLLHGDLWGGNYMFLTDGSPALFDPAPLYGDREFDIGITSVFGGFTQAFYDAYHKHYPLSEGADVRLEFYRLYLLMVHLVKFGEMYAGSVDRSMQKILNQLEHHHHHH
  soluble on expression in E. coli: soluble

## NNLLYKRWVKQRAADVDKWSDGRLGYVHIQSMGDDSFRSVYSDILGKYNNREGIVIDTRFNGGGRLHEDIEVLFSGKKYFTQVVRGREACDMPSRRWNKPSIMLTCEANYSNAHGTPWVYSHQKLGKLVGMPVPGTMTSVSWERLQDPSLVFGIPVIGYRLPDGSYLENTQLEPDIKVANSPETIVKGEDTQLKTAVEELLKELPAGKGKKH
  soluble on expression in E. coli: not soluble

## MYLSRITLHTSELSPAQLLHLVERGEYVMHQWLWDLFPGSKERQFLYRREELQGAFRFFVLSQEQPAASAIFDVQTRPFAPTLSAGQTLRFNLRANPTVCKNGKRHDLLMEAKRQRKTQGDSQDIWSYQQQAALTWLARQGEQNGFTLREASVDAYRQQQIRRGKDRQMIQFSSVDYTGVLVINEPALFLQRLAQGFGKSRAFGCGMMMIKPGDDA
  soluble on expression in E. coli: not soluble

## MATGAMSRSNDWTKSLSDAQPVPYWLDDPGRPRPEAALTGTETCDLLVVGGGYSGLWTALIAKERDPGRDVVLIEGREVGWAASGRNGGFCAASLTHGLSNGLTRWPDDIHRLEELGARNLDAIEAAVARHGLDCDFERTGEIDVATEPHQARELEEWYAEIRAQGLAEGVEYLDAEAVREQVDSPTFRAGLWDRRGVAMVNPAKLAWGLKRACLALGVRVHEHTPALTLKPYGAGMAVRTPYGAVRARTVALGTNVFPNLVRRVRPYTVPVYDYALMTEPLSDGQLASVGWQNRQGLGDSANQFHYFRLSRDNRILWGGYDAVYPYGGRVRAEYDHRPETYAKLAGHFFTCFPQLEGVRFTHAWGGAIDTCSRFSAFFGTAHRGRVAYAAGYTGLGVGATRFGAEVMLDLLSGERTERTELEMVRTKPLPFPPEPFAWTGIALTKWSLARADAHGGRRNLWLRTMDRLGLGFDSLEHHHHHH
  soluble on expression in E. coli: not soluble

## MSSQSIDDKFMSITQMKNLIHYVKKNDALSHLCIYILIITGSRFKPVQHLRYEDLNFKKSCIHLNDTKNKYSKRNVKVRIKDLEYIQSVINKHPINQNGYIFHNFINFISYSAINDVLVRFCLKYKYDKYTLKSLRHTHCSYLLAKGISIQYISKRLGHADIHTTLKIYSHLIKEFEDSENSLIEKNLNDLFSDLEHHHHHH
  soluble on expression in E. coli: not soluble

## MENSIRYISEHPTDFNGLLSLYESLGWNSLKLTVNELERMCKQSWYAIYVFDDKRLVGMGRVISDGVITGIICGVGVLPKYQSSGIGKEIVKRLIQHCEQNKVIPQLMCVEKLQSYYESIGFEAFSIGMTKHIIR
  soluble on expression in E. coli: not soluble

## MFRNVAELVELAESQAIPISEVMIRQEIEVTERSREAIIEQMENHLDVMEKAVRRGITEQVRSVSGLTGGDAVLLQDYLKKGNYLSSETVLDAVSKAVATNEVNAAMGTICATPTAGASGVVPGVLFGMEKRLSPTKEQKVRFLFTSGAFGFVVANNASISGAAGGCQAEVGSATGMAAAALVELAGGTPSQSAEAMAIALKNMLGLVCDPVAGLVEVPCVKRNAIGASIAITAADMALAGIQSRIPTDEVIDAMYKIGQAMPVAYKETAQGGLAATPKGRELEAKIFGVALDKK
  soluble on expression in E. coli: not soluble

## MSLEGRRICVDSCPITCITFCAAHTALGPHHGRSGCAVVIRSMDEKLKRVAHAVSDMGLMSKILGESGSSRNTEDYVELNANEFEMTGTELERQVRIARISDKQDVIDIKDAVYDGDVVVADITRHSTQDRTMEHISDELKQVANEVGGDIVQKDDDQLIITPAGVGIARERLGREGHHHHHH
  soluble on expression in E. coli: soluble

## GLNFPTYDGKDRVVSLSEKNFKQVLKKYDLLCLYYHEPVSSDKVTQKQFQLKEIVLELVAQVLEHKAIGFVMVDAKKEAKLAKKLGFDEEGSLYILKGDRTIEFDGEFAADVLVEFLLDLIEDPVEIISSKLEVQAFERIEDYIKLIGFFKSEDSEYYKAFEEAAEHFQPYIKFFATFDKGVAKKLSLKMNEVDFYEPFMDEPIAIPNKPYTEEELVEFVKEHQRPTLRRLRPEEMFETWEDDLNGIHIVAFAEKSDPDGYEFLEILKQVARDNTDNPDLSILWIDPDDFPLLVAYWEKTFKIDLFRPQIGVVNVTDADSVWMEIPDDDDLPTAEELEDWIEDVLSGKINTEDDDEDDDDDDNSDEEDNDDSDDDDDE
  soluble on expression in E. coli: soluble

## MGSDKIHHHHHHMSDGRLTALFPAFPHPASNQPVFAEASPHDDELMTQAVPQVSCQQALAIAQQEYGLSGQMSLLQGERDVNFCLTVTPDERYMLKVINAAEPADVSNFQTALLLHLARQAPELPVPRIRSTKAGQSETGVEIDGVLLRVRLVSYLAGMPQYLASPSTALMPQLGGTLAQLDNALHSFTHPAANRALLWDISRAEQVRPYLDFVSEPQQYQHLQRIFDRYDSNVAPLLTTLRRQVIHNDLNPHNVLVDGSSPTRVTGIIDFGDAVFAPLICEVATALAYQIGDGTDLLEHVVPFVAAYHQRIPLAPEEIALLPDLIATRMALTLTIAQWRASRYPDNREYLLRNVPRCWHSLQRIATYSHAQFLTRLQQVCPENAR
  soluble on expression in E. coli: not soluble

## GPRRLSIEGNIAVGKSTFVKLLTKTYPEWHVATEPVATWQNIQAAGNQKACTAQSLGNLLDMMYREPARWSYTFQTFSFLSRLKVQLEPFPEKLLQARKPVQIFERSVYSDRYIFAKNLFENGSLSDIEWHIYQDWHSFLLWEFASRITLHGFIYLQASPQVCLKRLYQRAREEEKGIELAYLEQLHGQHEAWLIHKTTKLHFEALMNIPVLVLDVNDDFSEEVTKQEDLMREVNTFVKNL
  soluble on expression in E. coli: soluble

## GNGIPPYAGAGDPARFTFNIVQNAKYWDKEHQYESLSDIRLHKFNAPAPGTFDFDESPVDGKKLELVSSKKIGFDGKFAGIAHDGEQFGLVTQDGSLFFTKDFDKATSFAHLDVPNGSDIHNTVDAAFFEPGGLAGIAQNKTLYGALVTKDVDDYIAWKDFLESSGDVMPLFDSKGRPELRTIRARMQYTMSVASDAKSDTFITVSVPHERAEQIVVSEFSKKDNKLVREGVLDGDYYPVGADMRGDVLYLLSKQHNCLVRVNMKDFTVKDAANLPVEGSDLAIVKDRAYILDGDTVHEVKL
  soluble on expression in E. coli: not soluble

## MAETPNQRITEINLNKEMRTSFLDYAMSVIVARALPDVRDGLKPVHRRILYAMNDLGMTSDKAYKKSARIVGEVIGKYHPHGDTAVYFTMVRMAQDFSYRNMLVDGHGNFGSVDGDMAAAMRYTEARMSKISMELLRDINKDTIDYADNYDGSEREPVILPARFPNLLVNGSSGIAVGMATNIPTHHLGEVIDGVLALSHDPEITIRDLMEYIPGPDFPTAGMIMGRSGIRRAYESGRGSITVRGRVDIEEKKNGKETIVITEIPYQVNKARLVERIAELAREKKIDGITSLNDESDRSGMRIVIEVRRDISASVIVNNLFKMTALQTTFGINMLALVDNHPKVLNLKEILYYYLEHQKVVIRRRTEFELRKAEARAHILEGLRIALDNIDAIIKLIRGSKTSDVAKEGLMTQFNLSDKQAQAILDMRLQRLTGLEREKIEEEYQNLVALINDLKAILADDERILEIIREELEEIKVKYADKRRTEILAGDLVSLEDEDLIPEEEVAITLTKRGYIKRLPLSTYRSQRRGGRGIQGMSTHEDDFVEHLVATSTHDTLLFFTNTGKVYRSKGYEVPEYGRTAKGIPIINLLGIESQEQVNAVINLSEFTDDSYLFFTTKHGVVKRTTLSQFAKIRQSGLRAVELRENDELISVQMTDGSKNMIIATKHGQSIYFPEENIRVMGRTAAGVRGIRLREDDEVIGMEVLEDDEKVLVVTEKGYGKQTPASQYPLRNRGGMGVKTVTITEKNGNLVAMKTVTGEEDLMLMTVSGVLIRFEIDTVSQTGRSAMGVKLIRLDEDEKVATVAKVPKEEDEVELEEEIDETLITQVPDESFEDAPGSDIEE
  soluble on expression in E. coli: not soluble

## MEVARGLEGVLFTESRMCYIDGQQGKLYYYGIPIQELAEKSSFEETTFLLLHGRLPRRQELEEFSAALARRRALPAHLLESFKRYPVSAHPMSFLRTAVSEFGMLDPTEGDISREALYEKGLDLIAKFATIVAANKRLKEGKEPIPPREDLSHAANFLYMANGVEPSPEQARLMDAALILHAEHGFNASTFTAIAAFSTETDLYSAITAAVASLKGPRHGGANEAVMRMIQEIGTPERAREWVREKLAKKERIMGMGHRVYKAFDPRAGVLEKLARLVAEKHGHSKEYQILKIVEEEAGKVLNPRGIYPNVDFYSGVVYSDLGFSLEFFTPIFAVARISGWVGHILEYQELDNRLLRPGAKYVGELDVPYVPLEARE
  soluble on expression in E. coli: soluble

## HSLLPVDDAINGLSEEQRQLRQTMAKFLQEHLAPKAQEIDRSNEFKNLREFWKQLGNLGVLGITAPVQYGGSGLGYLEHVLVMEEISRASGAVGLSYGAHSNLCINQLVRNGNEAQKEKYLPKLISGEYIGALAMSEPNAGSDVVSMKLKAEKKGNHYILNGNKFWITNGPDADVLIVYAKTDLAAVPASRGITAFIVEKGMPGFSTSKKLDKLGMRGSNTCELIFEDCKIPAANILGHENKGVYVLMSGLDLERLVLAGGPLGLMQAVLDHTIPYLHVREAFGQKIGHFQLMQGKMADMYTRLMACRQYVYNVAKACDEGHCTAKDCAGVILYSAECATQVALDGIQCFGGNGYINDFPMGRFLRDAKLYEIGAGTSEVRRLVIGRAFNADFH
  soluble on expression in E. coli: soluble
